Tests used:
[1] = test system: CC(=O)N[C@H]1[C@@H](O[C@H](C)[C@H](NC(=O)[C@H](CC(=O)O)NC(=O)[C@@H]2CCCN2C(=O)[C@H](C)N)C(=O)N[C@@H](CCCNC(=N)N)C(=O)N2CCC[C@H]2C(N)=O)O[C@H](CO)[C@H](O)[C@@H]1O; test: purified protein, by the assay type; settings: 500 µM UDP-Gal, 37.0 °C
[2] = target: Drosophila melanogaster C1GalT1, residues T43-Q388 (DmC1GalT1^T43-Q388) (Drosophila melanogaster) (UniProt Q7K237); test: ITC; 2 mM glycopeptide titrated into the enzyme (60 uM for APDT*RP, 50 uM for P4/P7); excess of UDP: 25 mM TRIS pH 7.5, 150 mM NaCl, 1 mM UDP, 1 mM MnCl2; 20 °C; one-site model; duplicate
[3] = target: DmC1GalT1^T43-Q388 (Drosophila melanogaster C1GalT1, residues T43-Q388) (Drosophila melanogaster); test: ITC; under an excess of UDP: 2 mM (glyco)peptide titrated into DmC1GalT1^T43-Q388 (60 µM for APDT*RP and APDTRP, 50 µM for P4/P7); 20 °C; 25 mM TRIS pH 7.5, 150 mM NaCl, 1 mM UDP, 1 mM MnCl2; one-site model; duplicate
[4] = test system: CC(=O)N[C@H]1[C@@H](O[C@H](C)[C@H](NC(=O)[C@H](C)NC(=O)[C@H](C)NC(=O)[C@@H]2CCCN2)C(=O)NCC(=O)N2CCC[C@H]2C(=O)N[C@@H](Cc2ccc(O)cc2)C(N)=O)O[C@H](CO)[C@H](O)[C@@H]1O; test: purified protein, by the assay type; settings: other: acceptor substrate varied (P1–P7 12.5–500 µM; APDT*RP/APDS*RP 12.5–1000 µM; α-O-methyl-GalNAc up to 2 mM), 500 µM UDP-Gal, 500 nM enzyme, 25 mM Tris pH 7.5, 150 mM NaCl, 50 µM MnCl2, 1 mg/ml BS, 37.0 °C
[5] = test system: CC(=O)N[C@H]1[C@@H](O[C@H](C)[C@H](NC(=O)[C@H](CC(=O)O)NC(=O)[C@H](C)NC(=O)[C@@H](N)Cc2ccc(O)cc2)C(=O)NCC(=O)N2CCC[C@H]2C(=O)N[C@@H](Cc2ccccc2)C(N)=O)O[C@H](CO)[C@H](O)[C@@H]1O; test: purified protein, by the assay type; settings: other: acceptor substrate varied (P1–P7 12.5–500 µM; APDT*RP/APDS*RP 12.5–1000 µM; α-O-methyl-GalNAc up to 2 mM), 500 µM UDP-Gal, 500 nM enzyme, 25 mM Tris pH 7.5, 150 mM NaCl, 50 µM MnCl2, 1 mg/ml BS, 37.0 °C
[6] = target: DmC1GalT1^T43-Q388 (Drosophila melanogaster C1GalT1, residues T43-Q388) (Drosophila melanogaster) (UniProt Q7K237)
[7] = target: DmC1GalT1^T43-Q388 (Drosophila melanogaster C1GalT1, residues T43-Q388) (Drosophila melanogaster) (UniProt Q7K237); test: ITC; with an excess of UDP: 2 mM (glyco)peptide titrated into 60 μM (APDT*RP, APDTRP) or 50 μM (P4/P7) enzyme; 25 mM TRIS pH 7.5, 150 mM NaCl, 1 mM UDP, 1 mM MnCl2; 20 °C; one-site model; low Wiseman c (c < 1)
[8] = other: acceptor substrate varied (P1–P7 12.5–500 µM; APDT*RP/APDS*RP 12.5–1000 µM; α-O-methyl-GalNAc up to 2 mM), 500 nM enzyme, 25 mM Tris pH 7.5, 150 mM NaCl, 50 µM MnCl2, 1 mg/ml BS

For “DmC1GalT1^S73-Q388 (Drosophila melanogaster)”, the Km ([1]; other: construct S73-Q388 (Hi5 cells), APDT*RP varied 12.5 µM–1 mM, fit ± standard error, n = 2, pH 7.5) was 322.6 µM.

APDT*RP glycopeptide (GalNAc on Thr) showed a Kd [2] of 173 µM.

In the case of “APDT*RP glycopeptide (* = GalNAc on the Thr)”, the Kd [3] is reported as 174 µM and the stoichiometry N [3] is reported as 0.88.

With “DmC1GalT1^T43-Q388 (Drosophila melanogaster)” the Km [4] was 50.06 µM, the Km [1, 8] was 195 µM and the kcat [1, 8] was 0.0583 s⁻¹. For the same substance, the Km [5] was 139.6 µM.

Work on “APDT*RP glycopeptide (MUC1 tandem repeat epitope with alpha-GalNAc on Thr)” yielded a Km^app of the glycopeptide as acceptor substrate (UDP-Glo glycosylation kinetics, 500 nM enzyme, 500 μM UDP-Gal) [6] of 195 µM, a fold by which UDP binds the enzyme more strongly than this peptide [7] of 9.5 fold and a stoichiometry N [7] of 1.

From PMC9065035, “Structural basis for the synthesis of the core 1 structure by C1GalT1” (Nature Communications, 2022)
